Measurements as given in patent publication CN104892754A (INST OF MILITARY VETERINARY ACADEMY OF MILITARY MEDICAL …, dated 2015).

T1: 重组蛋白BontB(B型肉毒毒素轻链) (肉毒梭菌 (Clostridium botulinum), UniProt P10844 1-441)
T1 sequence: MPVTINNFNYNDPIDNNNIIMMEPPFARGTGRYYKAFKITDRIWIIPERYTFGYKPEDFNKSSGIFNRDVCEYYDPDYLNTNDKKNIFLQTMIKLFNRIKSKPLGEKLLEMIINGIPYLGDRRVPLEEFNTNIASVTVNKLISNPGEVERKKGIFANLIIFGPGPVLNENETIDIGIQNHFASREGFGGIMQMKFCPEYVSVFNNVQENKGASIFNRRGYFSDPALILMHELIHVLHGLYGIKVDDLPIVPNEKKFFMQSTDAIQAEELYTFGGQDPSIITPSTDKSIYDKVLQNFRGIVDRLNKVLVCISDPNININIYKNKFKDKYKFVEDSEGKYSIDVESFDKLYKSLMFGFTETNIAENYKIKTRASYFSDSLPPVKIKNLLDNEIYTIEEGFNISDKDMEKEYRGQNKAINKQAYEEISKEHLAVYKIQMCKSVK

B1: 4C-scFv (scFv)
scFv: EVQLLESGGGLVQPGGSLRLSCAASGFTFSSYAMSWVRQAPGKGLEWVSGISPMGTRTSYADSVKGRFTISRDNSKNTLYLQMNSLRAEDTAVYYCAKNANGFDYWGQGTLVTVSSGGGGSGGGGSGGGGSTDIQMTQSPSSLSASVGDRVTITCRASQSISSYLNWYQQKPGKAPKLLIYRASVLQSGVPSRFSGSGSGETDFTLTISSLQPEDFATYYCQQRSRPPITFGQGTKVEIKRAAAHHHHHHGAAEQKLISEEDLNGAA
B2: 3A-scFv (scFv)
scFv: EVQLLESGGGLVQPGGSLRLSCAASGFTFSSYAMSWVRQAPGKGLEWVSNISSNGNATAYADSVKGRFTISRNNSKNTLYLQMNSLRAEDTAVYYCAKYTYAFDYWGQGTLVTVSSGGGGSGGGGSGGGGSTDIQMTQSPSSLSASVGDRVTITCRASQSISSYLNWYQQKPGKAPKLLIYYASNLQSGVPSRFSGSGSGTDFTLTISSLQPEDFATYYCQQDSYTPSTFGQGTKVEIKRAAAHHHHHHGAAEQKLISEEDLNGAA
B3: 抗B型肉毒毒素酶活性的人源单链抗体2F-scFv (scFv)
scFv: EVQLLESGGGLVQPGGSLRLSCAASGFTFSSYAMSWVRQAPGKGLEWVSSIASTGSNTAYADSVKGRFTISRNNSKNTLYLQMNSLRAEDTAVYYCAKGTGTFDYWGQGTLVTVSSGGGGSGGGGSGGGGSTDIQMTQSPSSLSASVGDRVTITCRASQSISSYLNWYQQKPGKAPKLLIYTASYLQSGVPSRFSGSGSGTDFTLTISSLQPEDFATYYCQQATTSPYTFGQGTKVEIKRAAAHHHHHHGAEQKLISEEDLNGAA

target: T1, 重组蛋白BontB(B型肉毒毒素轻链)

With B1 as the binder, how does the Ka read?
The Ka was 438000 M⁻¹.

With B2 as the binder, how does the Ka read?
Its Ka is 535000 M⁻¹.

With B3 as the binder, how does the Ka read?
Its Ka is 1.15e+06 M⁻¹.
